{"source": "paper PMC5884710", "about": "“Cork-in-Bottle Occlusion of Fluoride Ion Channels by Crystallization Chaperones” (Structure(London, England:1993), 2018)", "proteins": {"B1": {"name": "Fluoride channel from B. pertussis (Fluc homolog Bpe) (natural protein)", "chain": "MLTYAPLNFIAIGIGATLGAWLRWVLGLRLNGAGWPWGTLTANLVGGYLIGVMVALIASHPEWPAWIRLAAVTGFLGGLTTFSTFSAETVDMLERGVYATAAAYAGASLAGSLAMTGLGLATVRLLLR", "notes": "Fluc family fluoride ion channel homolog Bpe from B. pertussis; homodimer of two antiparallel subunits (subunits A and B in PDB 6BQO); pET21c with Bpe gene, C-terminal hexahistidine tag; Construct as in Stockbridge et al., 2013; also called Fluc channel; Fluc homologue \"Bpe\"; source: E. coli, purified (as described in Stockbridge et al., 2013); reconstituted into liposomes for …"}}, "target": "the molecule itself", "test": "crystal structure; in meso crystals of the Bpe-S8 complex; 26% PEG 550MME, 0.1 M sodium citrate, pH 5.0; 2.8 A"}
{"protein": "B1", "values": [{"measurement": "stoichiometry N", "value": 2}]}
